Measured values from patent publication CN114057887A.

Target: RBD-His (近岸生物货号:DRA42) (SARS-CoV-2) (UniProt P0DTC2)

hACE2-Fc融合蛋白 (人ACE2胞外区(ECD)与人IgG1的Fc片段的融合蛋白) (Fc fusion)
亲和力: 0.54 nM
